In publication PMC9482650, “Quantitative fragmentomics allow affinity mapping of interactomes” (Nature Communications, 2022):

T1: PDZD2_4, O15018
T1 sequence (O15018 723-823, limits assumed, looked up): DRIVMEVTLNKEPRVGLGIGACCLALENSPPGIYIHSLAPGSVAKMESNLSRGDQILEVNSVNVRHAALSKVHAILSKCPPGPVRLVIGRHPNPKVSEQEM

T2: MPDZ_7, O75970
T2 sequence (O75970 1146-1253, limits assumed, looked up): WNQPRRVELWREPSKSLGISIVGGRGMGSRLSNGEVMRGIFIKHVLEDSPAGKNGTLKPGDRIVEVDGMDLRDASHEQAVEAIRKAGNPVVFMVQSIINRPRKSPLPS

T3: PDZRN3_2, Q9UPQ7
T3 sequence (Q9UPQ7 414-513, limits assumed, looked up): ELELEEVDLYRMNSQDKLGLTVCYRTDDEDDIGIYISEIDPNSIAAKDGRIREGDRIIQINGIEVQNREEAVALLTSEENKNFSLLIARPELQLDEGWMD

T4: MPDZ_3, O75970
T4 sequence (O75970 372-473, limits assumed, looked up): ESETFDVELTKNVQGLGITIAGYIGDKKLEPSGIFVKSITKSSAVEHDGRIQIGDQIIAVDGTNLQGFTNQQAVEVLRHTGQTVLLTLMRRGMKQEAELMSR

T5: SHROOM3, Q8TF72
T5 sequence (Q8TF72 20-120, limits assumed, looked up): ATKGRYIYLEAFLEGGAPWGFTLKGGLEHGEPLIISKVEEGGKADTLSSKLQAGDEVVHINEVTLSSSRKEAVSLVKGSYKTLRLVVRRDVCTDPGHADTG

T6: SNTB2, Q13425
T6 sequence (Q13425 110-208, limits assumed, looked up): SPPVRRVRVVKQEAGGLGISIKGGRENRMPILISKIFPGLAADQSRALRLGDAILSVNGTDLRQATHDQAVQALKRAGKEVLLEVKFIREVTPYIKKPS

T7: PTPN13_4, Q12923
T7 sequence (Q12923 1783-1878, limits assumed, looked up): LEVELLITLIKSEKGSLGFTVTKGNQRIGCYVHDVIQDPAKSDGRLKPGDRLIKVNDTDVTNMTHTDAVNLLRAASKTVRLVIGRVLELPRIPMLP

T8: MPDZ_2, O75970
T8 sequence (O75970 252-347, limits assumed, looked up): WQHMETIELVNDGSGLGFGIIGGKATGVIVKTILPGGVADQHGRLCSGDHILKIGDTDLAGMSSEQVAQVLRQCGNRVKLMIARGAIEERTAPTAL


How the values were obtained:
Test in all cases: holdup assay
Design in all cases: key: below the threshold = too weak to quantify, mostly under pKd 3.1 to 4
Conditions in all cases: plain residues with an end cap or a label only (N-terminal biotin on a linker: ttds)
PDZD2_4, O15018 = molecular target: T1, PDZD2_4, O15018
Q96SB3 = molecular target: Q96SB3
Q70Z35 = molecular target: Q70Z35
PARD3B_3, Q8TEW8 = molecular target: PARD3B_3, Q8TEW8
Q96JB8 = molecular target: Q96JB8
MPDZ_7, O75970 = molecular target: T2, MPDZ_7, O75970
PDZRN3_2, Q9UPQ7 = molecular target: T3, PDZRN3_2, Q9UPQ7
GIPC3, Q8TF64 = molecular target: GIPC3, Q8TF64
O75970 = molecular target: O75970
Q9H190 = molecular target: Q9H190
GRIP2_2, Q9C0E4 = molecular target: GRIP2_2, Q9C0E4
PDZD9, Q8IXQ8 = molecular target: PDZD9, Q8IXQ8
MAGI1_3, Q96QZ7 = molecular target: MAGI1_3, Q96QZ7
Q9ULJ8 = molecular target: Q9ULJ8
PREX1_1, Q8TCU6 = molecular target: PREX1_1, Q8TCU6
NHERF4_3, Q86UT5 = molecular target: NHERF4_3, Q86UT5
MPDZ_3, O75970 = molecular target: T4, MPDZ_3, O75970
O60759 = molecular target: O60759
Q9NR12 = molecular target: Q9NR12
Q6ZWJ1 = molecular target: Q6ZWJ1
MAGI1_6, Q96QZ7 = molecular target: MAGI1_6, Q96QZ7
PDLIM4, P50479 = molecular target: PDLIM4, P50479
Q9Y3R0 = molecular target: Q9Y3R0
SHROOM3, Q8TF72 = molecular target: T5, SHROOM3, Q8TF72
MAGI3_4, Q5TCQ9 = molecular target: MAGI3_4, Q5TCQ9
TJP1_1, Q07157 = molecular target: TJP1_1, Q07157
Q12923 = molecular target: Q12923
SNTB2, Q13425 = molecular target: T6, SNTB2, Q13425
O43166 = molecular target: O43166
PTPN13_4, Q12923 = molecular target: T7, PTPN13_4, Q12923
MPDZ_2, O75970 = molecular target: T8, MPDZ_2, O75970

Sequence of MAGI3_4, Q5TCQ9 (Q5TCQ9 716-815): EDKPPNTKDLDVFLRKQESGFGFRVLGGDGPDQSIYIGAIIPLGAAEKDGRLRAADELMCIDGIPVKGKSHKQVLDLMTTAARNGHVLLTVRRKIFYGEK
Sequence of MAGI1_3, Q96QZ7 (Q96QZ7 638-725): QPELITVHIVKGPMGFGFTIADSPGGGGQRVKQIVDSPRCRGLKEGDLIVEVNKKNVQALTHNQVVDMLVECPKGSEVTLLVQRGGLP
Sequence of NHERF4_3, Q86UT5 (Q86UT5 325-412): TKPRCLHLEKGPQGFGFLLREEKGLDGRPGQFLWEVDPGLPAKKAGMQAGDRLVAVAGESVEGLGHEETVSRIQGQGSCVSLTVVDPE
Sequence of PDZD9, Q8IXQ8 (Q8IXQ8 23-120): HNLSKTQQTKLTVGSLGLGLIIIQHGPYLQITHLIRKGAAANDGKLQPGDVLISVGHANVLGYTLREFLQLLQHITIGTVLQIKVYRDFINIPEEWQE
Sequence of MAGI1_6, Q96QZ7 (Q96QZ7 1146-1238): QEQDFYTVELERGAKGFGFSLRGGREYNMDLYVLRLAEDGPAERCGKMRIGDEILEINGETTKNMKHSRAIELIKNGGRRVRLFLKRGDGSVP
Sequence of TJP1_1, Q07157 (Q07157 18-120): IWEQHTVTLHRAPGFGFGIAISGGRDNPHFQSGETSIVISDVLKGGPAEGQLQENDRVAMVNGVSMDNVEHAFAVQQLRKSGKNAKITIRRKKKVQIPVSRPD
Sequence of PREX1_1, Q8TCU6 (Q8TCU6 608-718): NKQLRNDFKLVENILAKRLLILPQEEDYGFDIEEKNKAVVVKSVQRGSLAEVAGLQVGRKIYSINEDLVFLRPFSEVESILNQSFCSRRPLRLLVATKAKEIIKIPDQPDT
Sequence of PARD3B_3, Q8TEW8 (Q8TEW8 490-594): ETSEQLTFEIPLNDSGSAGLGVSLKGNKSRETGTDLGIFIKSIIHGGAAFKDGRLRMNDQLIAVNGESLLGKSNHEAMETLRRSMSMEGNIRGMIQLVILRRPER
Sequence of GRIP2_2, Q9C0E4 (Q9C0E4 137-245): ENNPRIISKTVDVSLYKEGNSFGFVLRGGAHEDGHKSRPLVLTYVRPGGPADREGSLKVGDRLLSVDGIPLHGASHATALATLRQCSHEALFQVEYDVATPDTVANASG
Sequence of GIPC3, Q8TF64 (Q8TF64 107-202): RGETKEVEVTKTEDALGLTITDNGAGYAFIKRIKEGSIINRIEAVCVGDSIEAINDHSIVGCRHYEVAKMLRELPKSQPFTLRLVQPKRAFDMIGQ
Sequence of PDLIM4, P50479 (P50479 1-83): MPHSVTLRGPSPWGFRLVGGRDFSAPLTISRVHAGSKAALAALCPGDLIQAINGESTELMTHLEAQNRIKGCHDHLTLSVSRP

Row | pKd (PDZD2_4, O15018) | pKd (Q96SB3) | pKd (Q70Z35) | pKd (PARD3B_3, Q8TEW8) | pKd (Q96JB8) | pKd (MPDZ_7, O75970) | pKd (PDZRN3_2, Q9UPQ7) | pKd (GIPC3, Q8TF64) | pKd (O75970) | pKd (Q9H190) | pKd (GRIP2_2, Q9C0E4) | pKd (PDZD9, Q8IXQ8) | pKd (MAGI1_3, Q96QZ7) | pKd (Q9ULJ8) | pKd (PREX1_1, Q8TCU6) | pKd (NHERF4_3, Q86UT5) | pKd (MPDZ_3, O75970) | pKd (O60759) | pKd (Q9NR12) | pKd (Q6ZWJ1) | Binder | further results
1 | below the threshold | below the threshold | below the threshold | below the threshold | below the threshold | below the threshold | below the threshold | below the threshold | below the threshold | below the threshold | below the threshold | below the threshold | 4.57 | below the threshold | below the threshold | below the threshold | below the threshold | below the threshold | below the threshold | below the threshold | IQREDQETAV [DGKZ, Q13574] | pKd (MAGI1_6, Q96QZ7): 4.35; pKd (PDLIM4, P50479): below the threshold; pKd (Q9Y3R0): below the threshold; pKd (SHROOM3, Q8TF72): below the threshold; pKd (MAGI3_4, Q5TCQ9): below the threshold; pKd (TJP1_1, Q07157): below the threshold; pKd (Q12923): below the threshold; pKd (SNTB2, Q13425): 5.16; pKd (O43166): below the threshold; pKd (PTPN13_4, Q12923): below the threshold; pKd (MPDZ_2, O75970): below the threshold
2 | below the threshold | below the threshold | below the threshold | below the threshold | below the threshold | 4.73 | below the threshold | below the threshold | below the threshold | below the threshold | 4.28 | below the threshold | below the threshold | below the threshold | 3.99 | 4.13 | 4.04 | below the threshold | below the threshold | below the threshold | HRTCYLVTQL [ASIC3, Q9UHC3] | pKd (MAGI1_6, Q96QZ7): below the threshold; pKd (PDLIM4, P50479): below the threshold; pKd (Q9Y3R0): below the threshold; pKd (SHROOM3, Q8TF72): below the threshold; pKd (MAGI3_4, Q5TCQ9): below the threshold; pKd (TJP1_1, Q07157): 4.17; pKd (Q12923): below the threshold; pKd (SNTB2, Q13425): below the threshold; pKd (O43166): below the threshold; pKd (PTPN13_4, Q12923): below the threshold; pKd (MPDZ_2, O75970): below the threshold
3 | below the threshold | below the threshold | below the threshold | below the threshold | below the threshold | below the threshold | 4.11 | below the threshold | below the threshold | below the threshold | below the threshold | below the threshold | below the threshold | below the threshold | below the threshold | below the threshold | below the threshold | below the threshold | below the threshold | below the threshold | DPLTPSRSQL [DGKK, Q5KSL6] | pKd (MAGI1_6, Q96QZ7): below the threshold; pKd (PDLIM4, P50479): below the threshold; pKd (Q9Y3R0): below the threshold; pKd (SHROOM3, Q8TF72): below the threshold; pKd (MAGI3_4, Q5TCQ9): below the threshold; pKd (TJP1_1, Q07157): below the threshold; pKd (Q12923): below the threshold; pKd (SNTB2, Q13425): below the threshold; pKd (O43166): below the threshold; pKd (PTPN13_4, Q12923): below the threshold; pKd (MPDZ_2, O75970): below the threshold
